Assay results reported in patent US20130273073A1 (University of California, published 2013).

B1: G3 mouse anti-ROR1 mAb (antibody, V domains shown)
VH: QVQLQQPGAELVKPGTSVKLSCKASGYNFTNYWINWVKLRPGQGLEWIGEIYPGSGSTNYNEKFKSKATLTADTSSSTAYMQLSSLASEDSALYYCARDGNYYAMDYWGQGTSVTVSS
VL: DIQMTQTTSSLSASLGDRVTITCRASQDINNYLNWYQQKPDGTVKLLIYYTSALHSGVPSRFSGSGSGTDYSLTISNLEQEDIATYFCQQGNTLPPYTFGGGTKLEIK
B2: D10 mouse anti-ROR1 mAb (antibody, V domains shown)
VH: QVQLKESGPGLVAPSQTLSITCTVSGFSLTSYGVHWVRQPPGKGLEWLGVIWAGGFTNYNSALKSRLSISKDNSKSQVLLKMTSLQTDDTAMYYCARRGSSYSMDYWGQGTSVTVSS
VL: EIVLSQSPAITAASLGQKVTITCSASSNVSYIHWYQQRSGTSPRPWIYEISKLASGVPVRFSGSGSGTSYSLTISSMEAEDAAIYYCQQWNYPLITFGSGTKLEIQ
notes: also called D10 mAb; anti-ROR1 antibody D10
B3: F2 mouse anti-ROR1 mAb (antibody, V domains shown)
VH: EVQLQQSGPELEKPGASVKISCKASGFAFTGYNMNWVKQTNGKSLEWIGSIDPYYGGSTYNQKFKDKATLTVDKSSSTAYMQLKSLTSDDSAVYYCARSPGGDYAMDYWGQGTSVTVSS
VL: DIKMTQSPSSMYASVGERVTITCKASQGINSYSGWFQQKPGKSPKTLIYRGNRLVDGVPSRFSGSGSGQDYSLTISSLEYEDMGIYYCLQYDEFPYTFGGGTKLEIK
B4: G6 mouse anti-ROR1 mAb (antibody, V domains shown)
VH: EVQLQQSGPELEKPGASVKISCKASGFAFTGYNMNWVKQTNGKSLEWIGSIDPYYGGSTYNQKFKDKATLTVDKSSSTAYMQLKSLTSDDSAVYYCARSPGGDYAMDYWGQGTSVTVSS
VL: DIKMTQSPSSMYASVGERVTITCKASQGINSYSGWFQQKPGKSPKTLIYRGNRLVDGVPSRFSGSGSGQDYSLTISSLEYEDMGIYYCLQYDEFPYTFGGGTKLEIK
B5: 4A5 mouse anti-ROR1 mAb (antibody, V domains shown)
VH: EVKLVESGGGLVKPGGSLKLSCAASGFTFSSYAMSWVRQIPEKRLEWVASISRGGTTYYPDSVKGRFTISRDNVRNILYLQMSSLRSEDTAMYYCGRYDYDGYYAMDYWGQGTSVTVSS
VL: DIKMTQSPSSMYASLGERVTITCKASPDINSYLSWFQQKPGKSPKTLIYRANRLVDGVPSRFSGGGSGQDYSLTINSLEYEDMGIYYCLQYDEFPYTFGGGTKLEMK
notes: also called 4A5 mAb; anti-ROR1 antibody 4A5
B6: F12 mouse anti-ROR1 mAb (antibody, V domains shown)
VH: EVQLQQSGPELEKPGASVKISCKASGFAFTGYNMNWVKQTNGKSLEWIGSIDPYYGGSTYNQKFKDKATLTVDKSSSTAYMQLKSLTSDDSAVYYCARSPGGDYAMDYWGQGTSVTVSS
VL: DIKMTQSPSSMYASVGERVTITCKASQGINSYSGWFQQKPGKSPKTLIYRGNRLVDGVPSRFSGSGSGQDYSLTISSLEYEDMGIYYCLQYDEFPYTFGGGTKLEIK
B7: G11 mouse anti-ROR1 mAb (antibody, V domains shown)
VH: EVKLVESGGGLVKPGGSLKLSCAASGFTFSSYAMSWVRQTPEKRLEWVASISTGASAYFPDSVKGRFTISRDNARNILYLQMSSLRSEDTAMYYCARITTSTWYFDVWGAGTTVTVSS
VL: DIKMTQSPSSMYASLGERVTITCKASQDINSYLSWFQQKPGKSPKTLIYRANRLVDGVPSRFSGSGSGQDYSLTISSLEYEDMGIYYCLQYDEFPYTFGGGTKLEIK
B8: H10 mouse anti-ROR1 mAb (antibody, V domains shown)
VH: EVKLVESGGGLVKPGGSLKLSCAASGFTFSSYAMSWVRQTPEKRLEWVASISTGASAYFPDSVKGRFTISRDNARNILYLQMSSLRSEDTAMYYCARITTSTWYFDVWGAGTTVTVSS
VL: DIKMTQSPSSMYASLGERVTITCKASQDINSYLSWFQQKPGKSPKTLIYRANRLVDGVPSRFSGSGSGQDYSLTISSLEYEDMGIYYCLQYDEFPYTFGGGTKLEIK

Tests used:
[1] = biological target: T1, human ROR1 (human, UniProt Q01973 30-406); experiment: binding site mapping
T1 construct: The immunogen was the extracellular portion (AA 1-406); also called hROR1; ROR1 protein
T1 sequence (Q01973 30-406 limits assumed): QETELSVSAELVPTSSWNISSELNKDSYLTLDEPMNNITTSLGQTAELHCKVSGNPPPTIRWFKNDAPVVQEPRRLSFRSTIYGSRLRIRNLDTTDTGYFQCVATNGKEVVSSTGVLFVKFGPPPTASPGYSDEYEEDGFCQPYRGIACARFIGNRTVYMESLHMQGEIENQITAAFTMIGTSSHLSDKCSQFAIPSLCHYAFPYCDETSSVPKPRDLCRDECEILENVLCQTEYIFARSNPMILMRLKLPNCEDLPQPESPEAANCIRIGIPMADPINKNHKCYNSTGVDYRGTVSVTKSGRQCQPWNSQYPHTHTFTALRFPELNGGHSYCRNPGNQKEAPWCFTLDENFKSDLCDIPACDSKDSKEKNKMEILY
Procedure: (§1) As a second level screen, a series of deletion constructs were generated to determine the actual extracellular ROR1 domain to which the mAbs bind. […] As a final step, the actual amino acids targeted by these antibodies were determined. For this final screen, murinized human amino acids in the sub-domain fragments were generated to determine critical residues required for mAb binding (FIG. 15).

[2] = biological target: human ROR1 with the glutamic acid at position 138 replaced with the murine lysine (human, UniProt Q01973 30-406, limits assumed); experiment: murinized residue screen, western blot
Chain of human ROR1 with the glutamic acid at position 138 replaced with the murine lysine (Q01973 30-406 E138K limits assumed): as the sequence (Q01973 30-406 limits assumed) above, with E109K counted along it
Procedure: as §1

[3] = biological target: T1, human ROR1; experiment: standard techniques, method not stated (FIG. 16A)
[4] = biological target: T2, murine ROR1 (murine, UniProt Q9Z139 30-406, limits assumed); experiment: screen for binding to human and murine ROR1
T2 construct: also called mouse ROR1
T2 sequence (Q9Z139 30-406 limits assumed): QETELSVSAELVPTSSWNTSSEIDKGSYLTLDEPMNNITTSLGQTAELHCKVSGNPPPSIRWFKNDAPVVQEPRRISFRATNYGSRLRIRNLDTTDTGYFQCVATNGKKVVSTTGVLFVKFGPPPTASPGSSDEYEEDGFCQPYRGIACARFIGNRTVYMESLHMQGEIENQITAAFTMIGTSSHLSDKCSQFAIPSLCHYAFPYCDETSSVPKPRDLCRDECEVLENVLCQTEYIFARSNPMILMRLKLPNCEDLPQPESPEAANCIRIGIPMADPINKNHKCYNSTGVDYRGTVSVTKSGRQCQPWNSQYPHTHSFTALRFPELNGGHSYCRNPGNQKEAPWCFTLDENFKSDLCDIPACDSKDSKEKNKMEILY

[5] = biological target: T1, human ROR1; experiment: cross blocking, competitor D10
[6] = biological target: human ROR1 with the isoleucine at position 111 replaced with the murine asparagine (human, UniProt Q01973 30-406, limits assumed); experiment: murinized residue screen, western blot
Chain of human ROR1 with the isoleucine at position 111 replaced with the murine asparagine (Q01973 30-406 I111N limits assumed): as the sequence (Q01973 30-406 limits assumed) above, with I82N counted along it
Procedure: as §1

[7] = biological target: T1, human ROR1; experiment: standard techniques, method not stated (FIG. 16B)

Row | Binder | binding result [1] | binding result [5] | also measured
1 | B1 | binds | – | –
2 | B2 | – | – | binding result [2]: no binding; Kd [3]: 40 nM; binding result [4]: no binding
3 | B3 | – | binds | –
4 | B4 | – | binds | –
5 | B5 | – | – | binding result [6]: no binding; Kd [7]: 4 nM; binding result [4]: no binding
6 | B6 | – | binds | –
7 | B7 | binds | – | –
8 | B8 | binds | – | –
